In patent US10184116B2, “Chimeric genes for the catalytic protein of Oplophorus luciferase and use thereof” (JNC CORPORATION, priority 2014, dated 2019):
Residue numbers refer to the chain shown, from its start. In names and notes the source's numbering stands.

B1: WNanoKAZ-V90I: single amino acid-substituted WNanoKAZ mutant, valine 90 back to isoleucine; SEQ ID NO: 8 (protein)
chain: FTLADFVGDWQQTAGYNQDQVLEQGGLSSLFQALGVSVTPIQKVVLSGENGLKADIHVIIPYEGLSGFQMGLIEMIFKVVYPVDDHHFKIILHYGTLVIDGVTPNMIDYFGRPYEGIAVFDGKKITVTGTLWNGNKIIDERLINPDGSLLFRVTINGVTGWRLCERILA
B2: WNanoKAZ-E115P: WNanoKAZ with substitution of proline for glutamic acid at position 115; SEQ ID NO: 10 (protein)
chain: B1 chain with I90V, E115P
B3: WNanoKAZ-K124Q: single amino acid-substituted WNanoKAZ mutant K124Q; SEQ ID NO: 12 (protein)
chain: B1 chain with I90V, K124Q
B4: WNanoKAZ-I138Y: single amino acid-substituted WNanoKAZ mutant I138Y; SEQ ID NO: 14 (protein)
chain: B1 chain with I90V, I138Y
B5: WNanoKAZ-R166N: single amino acid-substituted WNanoKAZ mutant R166N; SEQ ID NO: 16 (protein)
chain: B1 chain with I90V, R166N

system: not listed separately; test: Luminescence activity of ZZ-fused WNanoKAZ mutants in crude enzyme solution (Example 10); format: biochemical; conditions: ZZ-fused, pCold-ZZ-P- vector in E. coli, coelenterazine substrate, KAZ = 1.0
Experimental: In order to express ZZ-fused KAZ mutants in E. coli, the recombinant plasmid produced in EXAMPLE 8 and pCold-ZZ-P-WNanoKAZ produced in EXAMPLE 1 were used. The crude enzyme solution was prepared in a manner similar to EXAMPLE 2, using the E. coli BL21 strain (Novagen, Madison, Wis.) as a host cell. Then, 5 μL of the crude enzyme solution obtained was subjected to SDS-PAGE analysis to confirm the protein expression in all mutants. In FIG. 1, M and 1 to 8 represent as follows. M: molecular weight size markers; 1: ZZ-P-KAZ; 2: ZZ-P-WNanoKAZ; 3: ZZ-P-WNanoKAZ-V90I; 4: ZZ-P-WNanoKAZ-E115P; 5: ZZ-P-WNanoKAZ-K124Q; 6: ZZ-P-WNanoKAZ-I138Y; 7: ZZ-P-WNanoKAZ-R166N; 8: ZZ-P-dnKAZ. It was confirmed from FIG. 1 that all mutants were expressed.
(§1) DTT was added to the crude enzyme solution obtained in EXAMPLE 9 at a final concentration of 1 mM, and then allowed to stand in an ice-water bath over 8 hours or more. After 1 μL of the crude enzyme solution was added to 100 μL of 30 mM Tris-HCl (pH 7.6)-10 mM EDTA (Wako Pure Chemical Industries, Ltd.) containing 1 μg of coelenterazine (manufactured by JNC Corp.), a luminescence reaction was started. Luminescence activity was measured for 60 seconds using a luminometer (manufactured by Atto Inc.: AB2200). The maximum intensity of luminescence (Imax) was given as a relative luminescence activity (rlu).

Molecule | Relative luminescence activity (Imax)
B1 | 34
B2 | 31
B3 | 34
B4 | 8.5
B5 | 32

same assay, conditions: coelenterazine substrate

Molecule | activity compared with dnKAZ (in words)
B4 | decreased to the same level as that of dnKAZ

same assay, conditions: coelenterazine substrate, Imax

Molecule | fold higher activity than native KAZ [fold] | fold higher activity than the relative activity 7.4 of dnKAZ [fold]
B1 | 34 | 4.6
B2 | 31 | 4.2
B3 | 34 | 4.6
B4 | 8.5 | 1.1
B5 | 32 | 4.3

system: not listed separately; test: Substrate specificity of WNanoKAZ mutants, crude enzyme solution (Example 11); format: biochemical; conditions: Imax
Experimental: as §1
Each of the coelenterazine analogues used for substrate specificity studies was synthesized by the methods described in publications. Specifically, bis-coelenterazine was synthesized by the method described in Nakamura et al. (1997) Tetrahedron Lett. 38: 6405-6406, furimazine by the method described in Hall et al. (2012) ACS Chem. Biol. […], and, 6h-coelenterazine, f-coelenterazine and 6h-f-coelenterazine by the method described in Inouye et al (2013) Biochem. Biophys. Res. Commun. 437: 23-28. Luminescence activity was measured by the same method as in EXAMPLE 10, using the crude enzyme solution obtained in EXAMPLE 10, in which coelenterazine or its analogue was used as the luminescence substrate.

Molecule | Relative luminescence activity, Furimazine, Imax | Relative luminescence activity, bis-CTZ, Imax | Relative luminescence activity, f-CTZ, Imax | Relative luminescence activity, h-CTZ, Imax
B1 | 17 | 23 | 31 | 41
B2 | 13 | 18 | 22 | 27
B3 | 18 | 36 | 64 | 70
B4 | 11 | 18 | 29 | 35
B5 | 17 | 17 | 38 | 43

same assay, conditions: Int.

Molecule | Relative luminescence activity, Furimazine, Int. | Relative luminescence activity, bis-CTZ, Int. | Relative luminescence activity, f-CTZ, Int. | Relative luminescence activity, h-CTZ, Int.
B1 | 15 | 21 | 22 | 22
B2 | 11 | 19 | 14 | 17
B3 | 11 | 33 | 40 | 41
B4 | 8.9 | 17 | 18 | 22
B5 | 12 | 18 | 27 | 28

same assay, conditions: coelenterazine substrate

Molecule | fold higher activity than the other coelenterazine analogues when coelenterazine was used as the substrate [fold]
B1 | 4.6
B2 | 4.2
B3 | 4.6
B4 | 1.1
B5 | 4.3

same assay, conditions: substrate 6h-CTZ, Imax

Molecule | Relative luminescence activity, 6h-CTZ, Imax
B1 | 5.1
B2 | 5.9
B3 | 6.2
B4 | 1.7
B5 | 4.6

same assay, conditions: substrate 6h-CTZ, Int.

Molecule | Relative luminescence activity, 6h-CTZ, Int.
B1 | 5.6
B2 | 6.1
B3 | 6.1
B4 | 2.8
B5 | 6.1

same assay, conditions: substrate 6h-f-CTZ, Imax

Molecule | Relative luminescence activity, 6h-f-CTZ, Imax
B1 | 23
B2 | 14
B3 | 40
B4 | 17
B5 | 13

same assay, conditions: substrate 6h-f-CTZ, Int.

Molecule | Relative luminescence activity, 6h-f-CTZ, Int.
B1 | 23
B2 | 11
B3 | 35
B4 | 10
B5 | 8.8

same assay, conditions: substrate CTZ, Imax

Molecule | Relative luminescence activity, CTZ, Imax
B1 | 34
B2 | 31
B3 | 34
B4 | 8.5
B5 | 32

same assay, conditions: substrate CTZ, Int.

Molecule | Relative luminescence activity, CTZ, Int.
B1 | 35
B2 | 26
B3 | 32
B4 | 8.9
B5 | 36

system: CHO-K1 cells; test: Luminescence activity of WNanoKAZ mutants expressed by secretory expression vectors in animal culture cells (Example 13); format: cell-based, Chinese hamster; conditions: pcDNA3-GLsp- secretory vector, cell extracts, coelenterazine substrate
Experimental: Chinese hamster ovary cell line CHO-K1 was cultured in Ham's F-12 medium (manufactured by Wako Pure Chemical Industries, Ltd.) supplemented with 10% (v/v) fetal bovine serum (manufactured by Biowest Inc.). The CHO-K1 cells were seeded in a 6-well plate in 1×10^5 cells/well/2 mL medium (n=2) and cultured in an incubator at 37° C. in 5% (v/v) CO2. After 24 hours, the purified recombinant plasmid was transfected to CHO-K1 cells using a FuGene HD transfection kit (manufactured by Promega Corp.) and the cells were used for subsequent experiment. Specifically, 1 μg of the recombinant plasmid, 0.1 μg of the internal standard vector pGL4.13 [Luc2/sv40] and 3 μL of FuGene HD were added to 100 μL of the medium and allowed to stand at room temperature for 15 minutes. Subsequently, 100 μL of the DNA-FuGene complex solution was added to the cells in the 6-well plate. After incubation for 46 hours, the culture medium was collected. On the other hand, the KAZ mutant expressed in the cells was washed 3 times with 3 mL of 1×PBS, then suspended in 1 mL of 1×PBS and disrupted by sonication on ice. The resultant cell extract of WNanoKAZ was used as the enzyme solution.
After adding 5 μL of the culture medium and cell extract obtained in EXAMPLE 5 to 100 μL of 30 mM Tris-HCl (pH 7.6)-10 mM EDTA (Wako Pure Chemical Industries, Ltd.) containing 1 μg of coelenterazine (manufactured by JNC Corp.), a luminescence reaction was started. Luminescence activity was measured for 60 seconds using a luminometer (manufactured by Atto Inc.: AB2200). The maximum intensity of luminescence (Imax) was given as a percentage (%).
The recombinant plasmid obtained in EXAMPLE 12 or 4 was purified in a manner similar to EXAMPLE 5 and dissolved in sterile water. The firefly luciferase vector (pGL4.13 [Luc2/sv40]: manufactured by Promega Corp.) was similarly prepared and used as an internal standard.
Culture medium containing two amino acid-substituted KAZ mutants and three amino acid-substituted KAZ mutants and cell extracts of the KAZ mutants as the enzyme solutions were prepared by the same procedure as in EXAMPLE 9.
The resultant culture medium and cell extracts were used to measure luminescence activity as in EXAMPLE 6.

Molecule | Relative luminescence activity (%, Imax) Cell extracts [%]
B1 | 15
B2 | 12
B3 | 21
B4 | 10
B5 | 26

same assay, conditions: pcDNA3-GLsp- secretory vector, culture medium, coelenterazine substrate

Molecule | Relative luminescence activity (%, Imax) Culture medium [%]
B1 | 0.03
B2 | <0.01
B3 | 0.03
B4 | <0.01
B5 | <0.01
